Source: patent US20260209316A1 (US Dept. of Health and Human Services, published 2026)
Like-named read-outs stand apart in the source and are kept apart here.

B1: antibody 232L (antibody, V domains shown)
VH: KSQLVESGGGLVQPGGSLRLSCAASGFTFDAYAMHWVRQAPGEGLEWVTAISWSGSSTYYADSVKGRFTFSRDNAKNSLYLEMNSLRADDTAFYYCVKGGVYNWFDVWGPGVLVTVSS
VL: QSVLTQPPSVSGAPGQRVTISCTGSRSNIGGYYVSWYQQFPGTTPKLLIYQDNKRPSGVSDRFSGSKSGTSASLTITGLQTEDEADYYCLSYDSSLNGWVFGGGTRLTVL
B2: antibody 206L (antibody, V domains shown)
VH: EVQLVESGGGVVQPGGSLRLSCAASGFTFDDYAMHWVRQAPGKGLEWVSGISWSGGNTYYADSVKGRFTVSRENAKNSLYLQMNRLRAEDTAFYNCARTSQGGAVVFSAPNYWGQGVLVTVSS
VL: QSVLTQAPSVSGAPGQRVTISCTGSSSNIGGYYVQWYQQLPGRAPKLLIYENNKRPSGVSDRFSGSRSASSASLTITGLQSEDEADYYCQSYDSRLNGYIFGGGTRLTVL
B3: antibody 310L (antibody, V domains shown)
VH: EMQLVESGGGLVQPGGSLRLSCAASGFTFDAYAMHWVRQRPGKGLEWISGIIWSGRTTYYADSVKGRFTFSRDNSKNSLYLEMNSLKPEDTALYYCAKDSWNYGVYNSLDVWGRGILVTVSS
VL: QSVLTQPPSVSGAPGQRVTISCTGSSSNVGPHYVSWYQHLPGTTPKLLIFQDNKRPSGVSDRFSGSKSASSASLTITGLQTEDEADYYCLSYDSSLNVYIFGSGTRLTVL
B4: antibody 523S (antibody, V domains shown)
VH: QVQLVQSGAELKKPGASVKVSCKASGYTFSDHYVHWVRQAPGQGLEWMGRINPNSGGTNYAQRFLGRVTMTRDASISTAYLDLSSLRSDDTAVYYCARSSSSWSGHYYYYMDVWGKGTTVTVSS
VL: QSVLTQPPSVSAAPGQRVTISCSGSTSNIASNFVSWYQQLPGTAPKLLIYDNHKRPSGIPDRFSGSKSGTSATLGITGLQTGDEADYYCGTWDSSLSAGVFGGGTKVTVLG
B5: antibody 191L (antibody, V domains shown)
VH: EVQLVESGGGLVQPGGSLRLSCAASGFTFSSYGIHWVRQAPGKGLEWVAIISYDGNKKFHADSVKDRFTISRDNSKNMLYLQMNNLKLEDTAVYYCARAYDSGYFAGSVFYYWGQGVLVTVSS
VL: EVVFTQPHSVSGSPGQTVTISCTRSSGSIDSEYVQWYQQRPGNAPTTVIYKDNQRPSGVPDRFSGSIDSSSNSASLAISGLKSEDEADYYCQSADGNYHPVFGEGTRLTVL
B6: antibody 233S (antibody, V domains shown)
VH: EVQLVESGGGLGQPGGSLRLSCAASGFKFKIFGMNWVRQAPGKGLEWVSYISSRSSIIYYADSVKGRFTISRDDATNSLFLQMNSLRDEDTAMYYCVRDYNLIDFVWGSLFDYWGQGILVTVSS
VL: AIRMTQSPSSLSASTGDSVTITCRASQNIASYLAWYQQIPGKAPKLLIYVASTLQSGVPSRFSGSGSGTDFTLTISSLQSEDFATYYCQQYYRYPPTFGQGTKVEIK
B7: antibody 315L (antibody, V domains shown)
VH: QVQLQESGPGLVKPSETLSLTCTVSGGSITGNYWTWVRQPPGKGLQYIGRFDAGGKTYYNPPLKSRVSILGDKSKNQVSLNLTSVTVADTGVYYCAREQWGQLLSGSFDVWGRGVLVTVSS
VL: SYELTQPPSVSVSPGQTARITCSGDALPDYYAHWYQQKSGQAPMLVIYKDTERPSGIPERFSGSSSGTTVSLTISGVQAEDEADYYCQSGDSSGNHWVFGGGTRLTVL
B8: antibody 231L (antibody, V domains shown)
VH: EVQLVESGGGLVQPGGSLRLSCAASAFTFDDYAMHWVRQAPGKGLEWVSGITWSGLSTYYADSVKGRFTISRDNAKNSLYLQMNSLRVEDTALYYCAKSGNNSPFSGLDSWGQGAVVTVSS
VL: QSVLTQPPSVSGAPGQRVTVSCTGSSSNIGAGSYVQWYQQLPGTAPKLLIYENNKRPSGVSDRFSGSKSGTSASLTITGLQSEDEADYYCQSYDSSLNAYIFGAGTRLTVL
B9: antibody 503S (antibody, V domains shown)
VH: QVQLVQSGAEVKKPGASVRVSCKASGYTFTSYYMHWVRQAPGQGLEWMGQINPSGGTTRYERKFQGRITVTRDTSTSTVYLELSSLRSEDTASYFCACLRDKVTYYDLWSGVDSVWGQGTLVTVSS
VL: DIQMTQSPSSLSASVGDRVTITCRASQDISTWLAWYQQKPEKAPKSLIYAASTLETGVPSRFSGSGSGTDFTLTISSLQPEDFATYYCEQYNGFPRTFGQGTKLDIK
B10: antibody 314L (antibody, V domains shown)
VH: EERLVESGGGLVQPGGSLRLSCAASGFTFGDYAMHWVRQVPGKSLEWLSGISWSGYTTYSADSVKGRFTISRDNAKNSLYLQMNRLRPEDTGLYYCVTLIGAIGIKDSLDVWGRGVLVTVSS
VL: EVVFTQPHSVSGSPGQMVTISCTRSSGTIDNSYVYWHQQRPGSAPTTVIYNDDQRPSGVPDRFSGSIDSSSNSASLTISGLKSEDEADYYCQSYDSSGWVFGGGTRLTVL

How the values were obtained:
[1] = target: T1, full-length Zaire GP (GPFL) (Ebola (Zaire) virus (EBOV), UniProt Q05320 33-632); test: ELISA on coated GP
T1 construct: also called Zaire GPFL; GP(Z)FL
T1 sequence: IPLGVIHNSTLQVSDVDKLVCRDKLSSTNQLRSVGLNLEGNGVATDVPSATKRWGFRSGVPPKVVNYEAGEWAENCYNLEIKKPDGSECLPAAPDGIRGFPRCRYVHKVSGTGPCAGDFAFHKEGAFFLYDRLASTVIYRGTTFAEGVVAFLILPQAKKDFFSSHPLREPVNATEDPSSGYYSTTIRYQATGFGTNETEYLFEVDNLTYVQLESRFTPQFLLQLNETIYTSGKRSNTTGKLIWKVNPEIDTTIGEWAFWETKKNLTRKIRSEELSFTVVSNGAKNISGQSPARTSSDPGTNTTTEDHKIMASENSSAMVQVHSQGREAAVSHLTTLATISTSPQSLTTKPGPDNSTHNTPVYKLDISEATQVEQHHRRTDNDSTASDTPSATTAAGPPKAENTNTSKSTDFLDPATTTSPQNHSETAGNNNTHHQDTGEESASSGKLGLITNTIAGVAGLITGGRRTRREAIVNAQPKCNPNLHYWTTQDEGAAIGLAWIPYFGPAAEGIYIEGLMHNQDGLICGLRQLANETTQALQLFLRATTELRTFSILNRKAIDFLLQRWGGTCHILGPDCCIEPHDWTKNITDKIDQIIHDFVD

[2] = target: T2, full-length Sudan GP (GPFL) (Sudan virus (SUDV), UniProt Q7T9D9 33-650); test: ELISA on coated GP
T2 construct: also called Sudan GPFL; GP(S)FL
T2 sequence: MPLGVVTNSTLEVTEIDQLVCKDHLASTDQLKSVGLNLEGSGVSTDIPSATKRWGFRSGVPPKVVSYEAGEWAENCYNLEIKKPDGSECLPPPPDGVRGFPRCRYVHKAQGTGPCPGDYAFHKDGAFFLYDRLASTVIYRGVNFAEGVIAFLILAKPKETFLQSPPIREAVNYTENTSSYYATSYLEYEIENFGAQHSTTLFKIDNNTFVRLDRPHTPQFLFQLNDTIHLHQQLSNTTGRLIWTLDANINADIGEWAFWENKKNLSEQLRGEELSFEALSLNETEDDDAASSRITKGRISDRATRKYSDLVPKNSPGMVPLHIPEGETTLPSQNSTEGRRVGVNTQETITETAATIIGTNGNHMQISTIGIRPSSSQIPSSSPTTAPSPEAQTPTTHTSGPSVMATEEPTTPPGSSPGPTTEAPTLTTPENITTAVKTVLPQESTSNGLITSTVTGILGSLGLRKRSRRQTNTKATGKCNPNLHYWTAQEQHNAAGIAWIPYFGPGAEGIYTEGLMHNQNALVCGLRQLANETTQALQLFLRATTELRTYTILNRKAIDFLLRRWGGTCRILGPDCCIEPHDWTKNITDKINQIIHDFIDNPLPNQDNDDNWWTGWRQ

[3] = target: T3, EBOV GP on pseudotyped lentiviral vector (Ebola (Zaire) virus (EBOV), UniProt Q05320 33-676); test: cell-based or functional assay
T3 sequence: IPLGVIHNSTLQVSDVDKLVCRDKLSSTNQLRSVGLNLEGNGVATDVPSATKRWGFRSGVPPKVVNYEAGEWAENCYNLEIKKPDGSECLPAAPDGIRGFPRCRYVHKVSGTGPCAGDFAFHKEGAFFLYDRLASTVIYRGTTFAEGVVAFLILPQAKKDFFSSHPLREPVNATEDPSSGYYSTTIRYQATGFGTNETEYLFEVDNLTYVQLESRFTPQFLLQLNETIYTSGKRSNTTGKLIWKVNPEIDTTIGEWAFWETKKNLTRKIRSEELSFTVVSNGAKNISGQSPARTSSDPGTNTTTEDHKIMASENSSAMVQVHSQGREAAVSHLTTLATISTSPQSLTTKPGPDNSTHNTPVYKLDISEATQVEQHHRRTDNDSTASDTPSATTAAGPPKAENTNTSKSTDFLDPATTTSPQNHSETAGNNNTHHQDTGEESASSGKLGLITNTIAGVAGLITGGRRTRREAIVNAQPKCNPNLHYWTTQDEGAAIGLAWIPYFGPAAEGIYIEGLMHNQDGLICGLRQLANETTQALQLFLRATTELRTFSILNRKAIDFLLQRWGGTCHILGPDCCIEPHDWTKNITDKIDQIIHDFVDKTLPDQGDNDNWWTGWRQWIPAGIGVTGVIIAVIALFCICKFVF

[4] = target: T4, SUDV GP on pseudotyped lentiviral vector (Sudan virus (SUDV), UniProt Q7T9D9 33-676); test: cell-based or functional assay
T4 sequence: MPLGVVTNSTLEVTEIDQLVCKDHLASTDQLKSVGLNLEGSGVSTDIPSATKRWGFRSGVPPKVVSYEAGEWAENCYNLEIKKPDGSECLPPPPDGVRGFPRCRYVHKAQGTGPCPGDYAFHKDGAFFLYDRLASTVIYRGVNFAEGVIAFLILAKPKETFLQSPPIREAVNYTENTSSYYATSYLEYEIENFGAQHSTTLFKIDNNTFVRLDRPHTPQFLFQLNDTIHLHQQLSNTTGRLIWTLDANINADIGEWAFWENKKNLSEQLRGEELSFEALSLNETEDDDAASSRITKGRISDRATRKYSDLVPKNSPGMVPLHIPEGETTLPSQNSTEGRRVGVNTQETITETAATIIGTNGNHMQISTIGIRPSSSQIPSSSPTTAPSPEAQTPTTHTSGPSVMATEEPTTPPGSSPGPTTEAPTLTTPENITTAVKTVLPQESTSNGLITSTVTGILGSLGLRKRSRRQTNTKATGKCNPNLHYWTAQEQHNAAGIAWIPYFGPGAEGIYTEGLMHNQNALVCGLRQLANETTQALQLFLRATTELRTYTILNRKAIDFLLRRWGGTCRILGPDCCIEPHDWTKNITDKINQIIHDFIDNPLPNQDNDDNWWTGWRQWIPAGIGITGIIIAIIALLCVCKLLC

[5] = target: T2, full-length Sudan GP (GPFL); test: ELISA on coated GP; remark: listed apart in the source
[6] = target: T4, SUDV GP on pseudotyped lentiviral vector; test: cell-based or functional assay; remark: listed apart in the source

Binder	EC50 [1]	EC50 [2]	IC50, microneutralization of GP-pseudotyped lentiviral vector on HEK293 cells [3]	IC50, microneutralization of GP-pseudotyped lentiviral vector on HEK293 cells [4]	EC50 [5]	IC50, microneutralization of GP-pseudotyped lentiviral vector on HEK293 cells [6]
B1	0.08 µg/mL	0.09 µg/mL	> 10 µg/mL	> 10 µg/mL	–	–
B2	0.001 µg/mL	2.58 µg/mL	> 10 µg/mL	> 10 µg/mL	–	–
B3	0.01 µg/mL	0.04 µg/mL	> 10 µg/mL	> 10 µg/mL	–	–
B4	–	–	–	–	0.371 µg/mL	0.108 µg/mL
B5	0.01 µg/mL	0.02 µg/mL	> 10 µg/mL	> 10 µg/mL	–	–
B6	–	–	–	–	0.133 µg/mL	0.167 µg/mL
B7	1.8 µg/mL	0.01 µg/mL	–	> 10 µg/mL	–	–
B8	0.002 µg/mL	0.4 µg/mL	> 10 µg/mL	> 10 µg/mL	–	–
B9	–	–	–	–	0.64 µg/mL	0.102 µg/mL
B10	1.73 µg/mL	1.05 µg/mL	–	–	–	–
